Reference: the supplement of paper PMC9732359
± gives the uncertainty stated by the source.

Experiment: protein stability index of a GFP-peptide fusion (yeast GPS) (PSI 1-4); higher = more stable; sorted into four equal gates, so the index is relative within each strain
Procedure, shortened: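 The protein stability index combines read frequencies across sorting gates, each weighted by its gate number and then summed. To obtain those frequencies, a pooled yeast library of GFP fusions to tiled 17-residue yeast protein peptides, on a plasmid also expressing Cherry, was grown to mid-log phase in leucine-free medium. The cells were sorted into four equal gates by GFP/Cherry ratio before plasmid amplification by PCR and Illumina sequencing.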

Sequence | protein stability index (doa10∆) | protein stability index (pdr5∆) | protein stability index (san1∆) | protein stability index (ubr1∆)
KHGAVHMSTYLKIYKVG [RPL21B] | 1.65 ± 0.042 | 1.52 ± 0.043 | 1.9 ± 0.062 | 1.74 ± 0.054
VDFEKFETFLVDVNNKF [SIN4] | 3.23 ± 0.07 | 3.34 ± 0.059 | 3.51 ± 0.037 | 3.31 ± 0.052
SIGRTAQGKEFGVTKAR [RPL17A] | 3.28 ± 0.14 | 3.44 ± 0.12 | 3.05 ± 0.096 | 
NSLFYLKWSACTSLMDI [IRR1] | 1.68 ± 0.073 | 2.31 ± 0.047 | 1.61 ± 0.13 | 1.83 ± 0.042
CYAPRPSAGPHKLRESL [RPS4A] | 2.78 ± 0.083 | 3.12 ± 0.091 | 2.87 ± 0.11 | 3.07 ± 0.072
SVVRGNTFKVLSKFFFF [COB] | 2.11 ± 0.065 | 2.2 ± 0.13 | 2.44 ± 0.093 | 1.83 ± 0.069
SYLEERERQVNEKLADL [RPC53] | 3.2 ± 0.14 | 3.42 ± 0.16 | 3.12 ± 0.17 | 3.19 ± 0.23
VARIPRVGGGGTGRSGQ [RPL4A] | 3.46 ± 0.15 | 3.39 ± 0.13 | 3.48 ± 0.072 | 2.57 ± 0.086
RFTKFSDTLKEFKIEQN [YDL116W/NUP84] | 1.74 ± 0.076 | 1.74 ± 0.081 | 1.42 ± 0.18 | 1.45 ± 0.058
ELAGDEELEAEQIDVFS [PRP8] | 3.43 ± 0.079 | 3.27 ± 0.13 | 3.08 ± 0.12 | 2.82 ± 0.13
RNTMMIQCQIDKLYIHF [RGR1] | 1.98 ± 0.051 | 2.15 ± 0.061 | 2.08 ± 0.069 | 2.19 ± 0.041
LVVRFTNKDIICQIISS [RPL5] | 1.62 ± 0.055 | 1.79 ± 0.062 | 1.25 ± 0.18 | 1.67 ± 0.051
HTLMSFAGEAGDTVQFA [PRE1] | 3.01 ± 0.11 | 3.3 ± 0.15 | 2.95 ± 0.095 | 3.22 ± 0.12
EQRKQKLSKILPRYQEL [SMC3] | 3.22 ± 0.12 | 3.1 ± 0.1 | 3.01 ± 0.096 | 3.12 ± 0.1
KLTAERANLRKYREGQV [POP1] | 2.91 ± 0.058 | 3.02 ± 0.07 | 2.8 ± 0.073 | 3.01 ± 0.055
TPAMIPYPGSPMHSIMP [DSN1] | 2.8 ± 0.037 | 2.67 ± 0.034 | 2.88 ± 0.036 | 2.846 ± 0.025
STRVEFEKLYSDLMKFL [FAS2] | 3.45 ± 0.3 | 3.27 ± 0.2 | 3.26 ± 0.15 | 
KFKDMGIRAPKGALMYG [RPT5] | 3.01 ± 0.13 | 3.46 ± 0.19 | 3.17 ± 0.21 | 3.4 ± 0.18
VMRNEIRITSLQGDLTF [SIR4] | 2.8 ± 0.073 | 2.35 ± 0.062 | 2.65 ± 0.081 | 2.68 ± 0.063
PHTVIRRKTTKQNSSSD [YDL088C/ASM4] | 3.14 ± 0.089 | 3.05 ± 0.079 | 3.01 ± 0.068 | 2.9 ± 0.043
EIIFLGAQIVSKQIFTH [ARP9] | 1.22 ± 0.1 | 1.33 ± 0.075 | 1.14 ± 0.14 | 1.25 ± 0.036
KEELLRDGVLTVTLNKN [RRP45] | 1.78 ± 0.054 | 2.11 ± 0.06 | 2.21 ± 0.084 | 2.06 ± 0.048
RLRQFNLQPISTPENVP [SMC4] | 1.69 ± 0.081 | 1.76 ± 0.067 | 1.61 ± 0.14 | 1.73 ± 0.052
NPHQKDQLIISSSANKL [YML103C/NUP188] | 2.45 ± 0.15 | 2.71 ± 0.094 | 2.29 ± 0.15 | 2.78 ± 0.069
SFKKIIKFLLTFIDKER [YCS4] | 1.16 ± 0.065 | 1.29 ± 0.11 | 1.19 ± 0.14 | 1.17 ± 0.066
TAFKSSPFGGSSHAKGI [RPS23A] | 3.02 ± 0.067 | 2.61 ± 0.053 | 3.02 ± 0.048 | 2.29 ± 0.04
